{"source": "patent US20150166606A1", "about": "(RA PHARMACEUTICALS, published 2015)", "binders": {"B1": {"name": "R2051 (peptide)", "peptide": "{des‑NH2}-CESICRV-NH2", "modifications": "linker 1-5 via mXylyl; not fully specified (residue 1); printed as [mXylyl(1,5)](des-NH2)C-ESICRV-NH2"}, "B2": {"name": "R2047 (peptide)", "peptide": "Ac-CASICRV-NH2", "modifications": "linker 1-5 via mXylyl; not fully specified (residue 2); printed as [mXylyl(1,5)]Ac-C-a-SICRV-NH2"}}, "note": "Bridge positions count the residues as written; N and C are the ends. Square brackets hold non-standard residues; d marks the D form. Ends that are not written are not given here. * marks the point of attachment. mXylyl = xylyl linker from dibromoxylene joining the two cysteines; des‑NH2 = missing amino-terminal amine group; Phg = N[C@H](C(=O)O)c1ccccc1; Tle = CC(C)(C)[C@H](N)C(=O)O; Heptanoyl = CCCCCCC(=O)*", "data": [{"biological_target": "T1, Activated human plasma kallikrein (Enzyme Research Laboratories, HPKa 1303) (human, UniProt P03952 20-638)", "T1 sequence (P03952 20-638 limits assumed)": "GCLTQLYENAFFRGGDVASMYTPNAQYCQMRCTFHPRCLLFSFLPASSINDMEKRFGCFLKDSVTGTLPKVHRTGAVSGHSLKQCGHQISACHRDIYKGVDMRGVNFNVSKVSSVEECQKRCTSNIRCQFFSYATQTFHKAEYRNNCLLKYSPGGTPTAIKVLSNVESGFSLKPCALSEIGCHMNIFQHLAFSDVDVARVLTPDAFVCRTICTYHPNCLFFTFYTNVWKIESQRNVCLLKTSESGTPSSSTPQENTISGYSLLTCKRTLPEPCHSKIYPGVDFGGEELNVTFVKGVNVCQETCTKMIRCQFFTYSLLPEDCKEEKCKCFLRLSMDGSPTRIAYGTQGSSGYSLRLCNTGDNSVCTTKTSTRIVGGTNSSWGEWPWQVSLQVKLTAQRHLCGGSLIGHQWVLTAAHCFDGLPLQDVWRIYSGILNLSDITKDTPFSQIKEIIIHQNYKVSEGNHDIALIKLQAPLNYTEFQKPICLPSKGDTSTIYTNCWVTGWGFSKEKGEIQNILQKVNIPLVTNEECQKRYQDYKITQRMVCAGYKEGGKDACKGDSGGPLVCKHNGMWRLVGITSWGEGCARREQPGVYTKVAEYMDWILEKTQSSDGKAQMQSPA", "test": "cell-based or functional assay", "units": {"Avg. IC50": "nM"}, "values": [{"binder": "MCNYWSPWTECSR-NH2 (linker 2-11 via mXylyl)", "note": "[R2003]", "Avg. IC50": 3.1}, {"binder": "MCESICRVLRYSE-NH2 (linker 2-6 via mXylyl)", "note": "[R2004]", "Avg. IC50": 0.501}]}, {"biological_target": "T1, Activated human plasma kallikrein …", "test": "cell-based or functional assay", "remark": "another data set of the same source", "units": {"Avg. IC50": "nM"}, "values": [{"binder": "B1", "Avg. IC50": 12.9}, {"binder": "MCESICRVLRYSE-NH2 (linker 2-6 via mXylyl)", "note": "[R2004]", "Avg. IC50": 0.501}, {"binder": "Heptanoyl-CESICRV-NH2 (linker 1-5 via mXylyl)", "note": "[R2041]", "Avg. IC50": 24.2}, {"binder": "Ac-CAS[Phg]CR[Tle]-NH2 (linker 1-5 via mXylyl)", "note": "[R2036]", "Avg. IC50": 6.4}, {"binder": "B2", "Avg. IC50": 17.4}]}, {"biological_target": "T1, Activated human plasma kallikrein …", "test": "cell-based or functional assay", "remark": "another data set of the same source", "units": {"Avg. IC50": "nM"}, "values": [{"binder": "MCNYWSPWTECSR-NH2 (linker 2-11 via mXylyl)", "note": "[R2003]", "Avg. IC50": 3.1}, {"binder": "MCNYWSPWTECSA-NH2 (cysteine pairing not given here)", "note": "[R2104]", "Avg. IC50": 3.4}]}, {"biological_target": "T1, Activated human plasma kallikrein …", "test": "cell-based or functional assay", "remark": "another data set of the same source", "units": {"Human Kallikrein IC50": "nM"}, "values": [{"binder": "MCNYWSPWTECSA-NH2 (cysteine pairing not given here)", "note": "[R2104]", "Human Kallikrein IC50": 3.4}, {"binder": "B1", "Human Kallikrein IC50": 12.9}, {"binder": "Heptanoyl-CESICRV-NH2 (linker 1-5 via mXylyl)", "note": "[R2041]", "Human Kallikrein IC50": 24.2}, {"binder": "Ac-CAS[Phg]CR[Tle]-NH2 (linker 1-5 via mXylyl)", "note": "[R2036]", "Human Kallikrein IC50": 6.4}, {"binder": "B2", "Human Kallikrein IC50": 32.3}]}, {"biological_target": "mouse plasma kallikrein (R&D Systems) (mouse, UniProt P26262 20-638)", "sequence (P26262 20-638 limits assumed)": "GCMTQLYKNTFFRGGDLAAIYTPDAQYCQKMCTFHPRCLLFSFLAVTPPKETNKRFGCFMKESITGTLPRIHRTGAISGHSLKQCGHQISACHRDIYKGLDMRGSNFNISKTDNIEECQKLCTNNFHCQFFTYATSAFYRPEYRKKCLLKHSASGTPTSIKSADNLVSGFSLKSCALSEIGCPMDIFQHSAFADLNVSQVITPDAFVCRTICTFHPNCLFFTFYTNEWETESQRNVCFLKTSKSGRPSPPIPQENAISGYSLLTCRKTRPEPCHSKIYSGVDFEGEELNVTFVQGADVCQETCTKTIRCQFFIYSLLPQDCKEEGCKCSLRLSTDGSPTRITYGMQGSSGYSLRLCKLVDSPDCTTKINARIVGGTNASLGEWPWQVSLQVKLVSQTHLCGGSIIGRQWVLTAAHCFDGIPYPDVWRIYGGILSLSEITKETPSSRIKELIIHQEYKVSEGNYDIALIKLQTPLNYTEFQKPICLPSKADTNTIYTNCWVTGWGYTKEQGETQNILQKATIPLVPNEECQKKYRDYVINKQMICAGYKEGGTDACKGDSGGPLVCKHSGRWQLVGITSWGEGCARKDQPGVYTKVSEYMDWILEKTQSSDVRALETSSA", "test": "cell-based or functional assay", "units": {"Mouse Kallikrein IC50": "nM"}, "values": [{"binder": "MCNYWSPWTECSA-NH2 (cysteine pairing not given here)", "note": "[R2104]", "Mouse Kallikrein IC50": 11.2}, {"binder": "B1", "Mouse Kallikrein IC50": 19.3}, {"binder": "Heptanoyl-CESICRV-NH2 (linker 1-5 via mXylyl)", "note": "[R2041]", "Mouse Kallikrein IC50": 191}, {"binder": "Ac-CAS[Phg]CR[Tle]-NH2 (linker 1-5 via mXylyl)", "note": "[R2036]", "Mouse Kallikrein IC50": 12.8}, {"binder": "B2", "Mouse Kallikrein IC50": 36.7}]}, {"biological_target": "T2, Factor VIIa (Enzyme Research Laboratories) (human, UniProt P08709 61-466)", "T2 sequence (looked up)": "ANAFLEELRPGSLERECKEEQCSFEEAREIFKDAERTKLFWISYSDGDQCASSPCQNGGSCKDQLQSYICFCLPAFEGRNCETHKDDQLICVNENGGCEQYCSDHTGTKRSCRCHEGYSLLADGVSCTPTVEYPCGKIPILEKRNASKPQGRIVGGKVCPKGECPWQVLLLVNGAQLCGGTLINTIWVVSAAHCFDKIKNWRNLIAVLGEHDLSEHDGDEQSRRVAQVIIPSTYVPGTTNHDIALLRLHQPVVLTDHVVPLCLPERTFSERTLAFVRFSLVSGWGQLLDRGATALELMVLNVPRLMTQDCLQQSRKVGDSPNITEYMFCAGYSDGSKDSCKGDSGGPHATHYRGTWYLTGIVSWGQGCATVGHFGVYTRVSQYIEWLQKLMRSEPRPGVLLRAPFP", "test": "cell-based or functional assay", "units": {"Factor VIIa IC50": "µM"}, "values": [{"binder": "MCNYWSPWTECSA-NH2 (cysteine pairing not given here)", "note": "[R2104]", "Factor VIIa IC50": "> 100"}, {"binder": "B1", "Factor VIIa IC50": "> 100"}, {"binder": "Heptanoyl-CESICRV-NH2 (linker 1-5 via mXylyl)", "note": "[R2041]", "Factor VIIa IC50": "> 17.9"}, {"binder": "Ac-CAS[Phg]CR[Tle]-NH2 (linker 1-5 via mXylyl)", "note": "[R2036]", "Factor VIIa IC50": "> 100"}, {"binder": "B2", "Factor VIIa IC50": "> 100"}]}, {"biological_target": "Factor Xa (Enzyme Research Laboratories) (human, UniProt P00742 41-488, limits assumed)", "sequence (P00742 41-488 limits assumed)": "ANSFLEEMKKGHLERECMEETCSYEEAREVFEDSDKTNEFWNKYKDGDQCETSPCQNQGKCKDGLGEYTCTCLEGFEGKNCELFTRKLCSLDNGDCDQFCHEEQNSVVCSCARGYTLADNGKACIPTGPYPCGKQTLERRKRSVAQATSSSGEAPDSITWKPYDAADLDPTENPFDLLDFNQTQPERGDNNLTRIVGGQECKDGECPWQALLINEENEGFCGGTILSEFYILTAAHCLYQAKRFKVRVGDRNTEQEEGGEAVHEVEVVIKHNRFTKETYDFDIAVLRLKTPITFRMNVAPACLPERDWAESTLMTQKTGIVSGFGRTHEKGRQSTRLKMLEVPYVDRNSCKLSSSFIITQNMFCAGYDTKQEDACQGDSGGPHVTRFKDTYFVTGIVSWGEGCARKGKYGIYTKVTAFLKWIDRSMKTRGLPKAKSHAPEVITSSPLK", "test": "cell-based or functional assay", "units": {"Factor Xa IC50": "µM"}, "values": [{"binder": "MCNYWSPWTECSA-NH2 (cysteine pairing not given here)", "note": "[R2104]", "Factor Xa IC50": "> 100"}, {"binder": "B1", "Factor Xa IC50": "> 100"}, {"binder": "Heptanoyl-CESICRV-NH2 (linker 1-5 via mXylyl)", "note": "[R2041]", "Factor Xa IC50": "> 7"}, {"binder": "Ac-CAS[Phg]CR[Tle]-NH2 (linker 1-5 via mXylyl)", "note": "[R2036]", "Factor Xa IC50": "> 7"}, {"binder": "B2", "Factor Xa IC50": "> 100"}]}, {"biological_target": "Factor XIa (Enzyme Research Laboratories) (human, UniProt P03951 19-625)", "sequence (P03951 19-625 limits assumed)": "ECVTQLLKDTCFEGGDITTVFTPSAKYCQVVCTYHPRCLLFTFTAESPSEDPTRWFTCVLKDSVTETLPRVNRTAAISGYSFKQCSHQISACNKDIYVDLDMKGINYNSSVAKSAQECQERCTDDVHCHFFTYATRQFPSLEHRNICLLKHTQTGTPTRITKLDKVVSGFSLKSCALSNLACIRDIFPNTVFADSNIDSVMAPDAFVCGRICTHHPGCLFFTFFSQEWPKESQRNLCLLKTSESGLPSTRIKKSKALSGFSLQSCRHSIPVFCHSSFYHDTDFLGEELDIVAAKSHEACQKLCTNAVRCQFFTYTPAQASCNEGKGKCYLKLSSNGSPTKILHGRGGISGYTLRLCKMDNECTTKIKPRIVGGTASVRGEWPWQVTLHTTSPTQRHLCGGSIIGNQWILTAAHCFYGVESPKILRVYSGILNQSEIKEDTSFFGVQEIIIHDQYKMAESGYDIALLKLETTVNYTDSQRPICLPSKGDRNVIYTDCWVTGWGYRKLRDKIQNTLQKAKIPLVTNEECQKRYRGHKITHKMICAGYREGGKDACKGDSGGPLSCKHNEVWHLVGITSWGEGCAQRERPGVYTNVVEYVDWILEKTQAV", "test": "cell-based or functional assay", "units": {"Factor XIa IC50": "µM"}, "values": [{"binder": "MCNYWSPWTECSA-NH2 (cysteine pairing not given here)", "note": "[R2104]", "Factor XIa IC50": "> 5"}, {"binder": "B1", "Factor XIa IC50": "> 8.3"}, {"binder": "Heptanoyl-CESICRV-NH2 (linker 1-5 via mXylyl)", "note": "[R2041]", "Factor XIa IC50": "> 5.4"}, {"binder": "Ac-CAS[Phg]CR[Tle]-NH2 (linker 1-5 via mXylyl)", "note": "[R2036]", "Factor XIa IC50": "> 4.8"}, {"binder": "B2", "Factor XIa IC50": "> 13.8"}]}, {"biological_target": "T3, Factor XIIa (Enzyme Research Laboratories) (human, UniProt P00748 20-615, limits assumed)", "T3 sequence (looked up)": "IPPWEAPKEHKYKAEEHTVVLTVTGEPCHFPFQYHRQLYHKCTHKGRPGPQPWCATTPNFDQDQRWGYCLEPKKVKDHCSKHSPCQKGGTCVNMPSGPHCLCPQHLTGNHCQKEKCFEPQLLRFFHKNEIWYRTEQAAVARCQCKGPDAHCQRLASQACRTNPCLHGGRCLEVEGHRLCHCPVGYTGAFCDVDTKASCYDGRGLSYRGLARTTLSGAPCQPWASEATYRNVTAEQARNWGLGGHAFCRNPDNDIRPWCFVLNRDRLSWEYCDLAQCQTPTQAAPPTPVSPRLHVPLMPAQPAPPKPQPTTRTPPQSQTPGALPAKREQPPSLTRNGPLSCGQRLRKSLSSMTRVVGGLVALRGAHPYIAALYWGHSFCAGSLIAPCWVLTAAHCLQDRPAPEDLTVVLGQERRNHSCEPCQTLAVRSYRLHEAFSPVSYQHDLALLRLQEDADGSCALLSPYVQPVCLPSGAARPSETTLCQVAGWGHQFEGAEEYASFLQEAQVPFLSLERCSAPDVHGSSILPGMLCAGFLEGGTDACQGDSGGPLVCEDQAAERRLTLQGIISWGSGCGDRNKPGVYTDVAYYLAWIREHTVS", "test": "cell-based or functional assay", "units": {"Factor XIIa IC50": "µM"}, "values": [{"binder": "MCNYWSPWTECSA-NH2 (cysteine pairing not given here)", "note": "[R2104]", "Factor XIIa IC50": "> 100"}, {"binder": "B1", "Factor XIIa IC50": "> 100"}, {"binder": "Heptanoyl-CESICRV-NH2 (linker 1-5 via mXylyl)", "note": "[R2041]", "Factor XIIa IC50": "> 100"}, {"binder": "Ac-CAS[Phg]CR[Tle]-NH2 (linker 1-5 via mXylyl)", "note": "[R2036]", "Factor XIIa IC50": "> 100"}, {"binder": "B2", "Factor XIIa IC50": "> 100"}]}, {"biological_target": "T4, tissue kallikrein KLK13 (R&D Systems) (human, UniProt Q9UKR3 17-277, limits assumed)", "T4 sequence (looked up)": "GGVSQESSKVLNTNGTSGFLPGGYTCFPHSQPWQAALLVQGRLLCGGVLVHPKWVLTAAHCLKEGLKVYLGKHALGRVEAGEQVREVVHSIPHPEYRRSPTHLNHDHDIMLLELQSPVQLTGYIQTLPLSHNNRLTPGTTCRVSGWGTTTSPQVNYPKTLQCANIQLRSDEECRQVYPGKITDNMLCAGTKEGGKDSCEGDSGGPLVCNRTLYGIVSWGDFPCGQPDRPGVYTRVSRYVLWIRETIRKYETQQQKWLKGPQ", "test": "cell-based or functional assay", "units": {"KLK13 IC50": "µM"}, "values": [{"binder": "MCNYWSPWTECSA-NH2 (cysteine pairing not given here)", "note": "[R2104]", "KLK13 IC50": "> 100"}, {"binder": "B1", "KLK13 IC50": "> 100"}, {"binder": "Heptanoyl-CESICRV-NH2 (linker 1-5 via mXylyl)", "note": "[R2041]", "KLK13 IC50": "> 100"}, {"binder": "Ac-CAS[Phg]CR[Tle]-NH2 (linker 1-5 via mXylyl)", "note": "[R2036]", "KLK13 IC50": "> 100"}, {"binder": "B2", "KLK13 IC50": "> 100"}]}, {"biological_target": "thrombin (Enzyme Research Laboratories) (human, UniProt P00734 328-622)", "test": "cell-based or functional assay", "units": {"Thrombin IC50": "µM"}, "values": [{"binder": "MCNYWSPWTECSA-NH2 (cysteine pairing not given here)", "note": "[R2104]", "Thrombin IC50": "> 100"}, {"binder": "B1", "Thrombin IC50": "> 100"}, {"binder": "Heptanoyl-CESICRV-NH2 (linker 1-5 via mXylyl)", "note": "[R2041]", "Thrombin IC50": "> 100"}, {"binder": "Ac-CAS[Phg]CR[Tle]-NH2 (linker 1-5 via mXylyl)", "note": "[R2036]", "Thrombin IC50": "> 100"}, {"binder": "B2", "Thrombin IC50": "> 100"}]}, {"biological_target": "plasmin (Enzyme Research Laboratories) (human, UniProt P00747 97-810, limits assumed)", "sequence (P00747 97-810 limits assumed)": "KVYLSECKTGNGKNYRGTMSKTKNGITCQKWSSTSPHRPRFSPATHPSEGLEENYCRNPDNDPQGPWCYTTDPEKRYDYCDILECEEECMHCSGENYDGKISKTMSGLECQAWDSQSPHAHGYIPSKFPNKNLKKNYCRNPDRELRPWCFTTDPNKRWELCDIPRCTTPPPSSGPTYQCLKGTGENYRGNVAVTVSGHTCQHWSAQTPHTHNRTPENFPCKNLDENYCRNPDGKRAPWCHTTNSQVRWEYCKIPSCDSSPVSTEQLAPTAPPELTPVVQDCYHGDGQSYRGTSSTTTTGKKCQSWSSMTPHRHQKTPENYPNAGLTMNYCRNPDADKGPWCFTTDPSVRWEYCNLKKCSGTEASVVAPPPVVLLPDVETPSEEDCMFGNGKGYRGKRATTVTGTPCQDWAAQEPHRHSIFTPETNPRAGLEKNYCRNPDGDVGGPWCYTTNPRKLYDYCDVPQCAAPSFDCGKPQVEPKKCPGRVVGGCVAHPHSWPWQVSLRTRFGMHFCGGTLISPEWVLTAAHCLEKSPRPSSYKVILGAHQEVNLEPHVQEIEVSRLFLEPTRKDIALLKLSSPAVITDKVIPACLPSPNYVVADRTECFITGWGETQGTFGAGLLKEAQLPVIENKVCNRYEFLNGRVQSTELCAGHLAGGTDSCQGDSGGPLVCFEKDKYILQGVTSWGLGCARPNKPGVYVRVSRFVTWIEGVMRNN", "test": "cell-based or functional assay", "units": {"Plasmin IC50": "µM"}, "values": [{"binder": "MCNYWSPWTECSA-NH2 (cysteine pairing not given here)", "note": "[R2104]", "Plasmin IC50": 5.8}, {"binder": "B1", "Plasmin IC50": "> 100"}, {"binder": "Heptanoyl-CESICRV-NH2 (linker 1-5 via mXylyl)", "note": "[R2041]", "Plasmin IC50": "> 100"}, {"binder": "Ac-CAS[Phg]CR[Tle]-NH2 (linker 1-5 via mXylyl)", "note": "[R2036]", "Plasmin IC50": "> 19.5"}, {"binder": "B2", "Plasmin IC50": "> 100"}]}]}
